Legend:
[1] = biological target: T1, H1-mini2-cluster1+5+6-GCN4 without leader sequence and with FLAG-thrombin-foldon-HIS (SEQ ID NO: 6); experiment: ELISA/HTRF ratio, reference itself; settings: remark: other sources report otherwise
[2] = biological target: T1, H1-mini2-cluster1+5+6-GCN4 without …; experiment: ELISA signal over HTRF expression signal; average (AV); settings: remark: other sources report otherwise

B1: CR6261 (antibody, V domains shown)
VH: EVQLVESGAEVKKPGSSVKVSCKASGGPFRSYAISWVRQAPGQGPEWMGGIIPIFGTTKYAPKFQGRVTITADDFAGTVYMELSSLRSEDTAMYYCAKHMGYQVRETMDVWGKGTTVTVSS
VL: QSVLTQPPSVSAAPGQKVTISCSGSSSNIGNDYVSWYQQLPGTAPKLLIYDNNKRPSGIPDRFSGSKSGTSATLGITGLQTGDEANYYCATWDRRPTAYVVFGGGTKLTVLG
- fold increase of ratio over parental H1 mini-HA [1]: 1 fold
- ratio binding/HTRF signal [2]: 5.94
